In the DeepSol protein solubility set:

Test: soluble on expression in E. coli; label from the status in PepcDB or PDB records

Sequence | soluble on expression in E. coli
MNNHFKCIGIVGHPRHPTALTTHEMLYRWLCDQGYEVIVEQQIAHELQLKNVPTGTLAEIGQQADLAVVVGGDGNMLGAARTLARYDINVIGINRGNLGFLTDLDPDNALQQLSDVLEGRYISEKRFLLEAQVCQQDRQKRISTAINEVVLHPGKVAHMIEFEVYIDETFAFSQRSDGLIISTPTGSTAYSLSAGGPILTPSLDAITLVPMFPHTLSARPLVINSSSTIRLRFSHRRSDLEISCDSQIALPIQEGEDVLIRRCDYHLNLIHPKDYSYFNTLSTKLGWSKKLFMAGDPLEHHHHHH | not soluble
MASIKKVYRGMKNGAETINDDLEAINSELTSGGNVVHKTGDETIAGKKTFTGNVEVNGSLTLPVQTLTVEAGNGLQLQLTKKNNDLVIVRFFGSVSNIQKGWNMSGTWVDRPFRPAAVQSLVGHFAGRDTSFHIDINPNGSITWWGANIDKTPIATRGNGSYFIK | soluble
MADPDSYRSSITSRPAFNRTVTSSTQNYGTPASGNRVLKIVTETHTSSVASGLSPYGQGAASTIRDDREREKKEITELNDRLASYIGKVRFLAAQNRKLEADLNVLQSRFGKSTGSVKIMYEMEITTATNVVKETGKDHEEAEKEIGKIKDQLDELRKKFEEAQKGRAEDRLKIDELLVTLSNLEAEINLLKRRIALLEEEVARLKKENFRLTSELQRVRSELDQETLLRIDNQNKVTTILEEIDFMKRGFETELKDLQAQAARDTTSENREYFKNELMNSIRDIRAEYDRFMAGNRNDLESWSQIRVQEINTQTNRQNAEINHKRDEVKRLHSQVSELKSKHAELAARNGLLEKQLEDLNYQLEDDQRSYEAALNDKDAQVRKLREECQALLVELQMLLDTKQTLDGELKVYRRMLEGNSEENGLRQLVEKVVRTSAINEEVDTETMRVVKGEHSSRTSYQRSAKGNVSIKEVSPEGKFVILENTHRDKEEPLGDWKLKRKIDGKREIVFTFPSDYILHPVQTVKIFARGNGVANPPEVLVFEGDDTFGAGANVQTILYNNSGEERATHMQRQSQQTTTS | not soluble
MGSDKIHHHHHHMKIVVTKFGGSSLADSNQFKKVKGIIDSDANRKYIIPSAPGKRTNKDYKITDLLYLCNAHVKNGIPFDDVFKLISQRYTEIVSELNIDMDIAYYLEKVKKNIENGASSDYAASRGEYLNGVILAKYLNAEFIDAAEVIFFDKSGCFDEKKSYEKIKEKVLSCNKAVIPGFYGSSFNGDVKTFSRGGSDVTGSIISAGVNADLYENWTDVSGFLMADPRIVENPKTISKISYKELRELSYMGATVLHEEAIFPVKDSGIPINIKNTNKPSDPGTLILSDTHKEINLGTITGIAGKKNFTVIAIEKALLNSEVGFCRKILSILEMYGVSFEHMPSGVDSVSLVIEDCKLDGKCDKIIEEIKKQCNPDSIEIHPNMALVATVGTGMAKTKGIANKIFTALSKENVNIRMIDQGSSEINVIVGVETVDFEKAVKSIYNAFN | not soluble
MGSDKIHHHHHHMNLNIAICDDDTNDIAIMKKNILQYTIETDNNIVVSSYFSASDILSDYKNHLYQIVLLDIEMPDINGMELARQLRDMDDDLLIIFTTSYPEYMHESFEVQPFQFITKPVDYTAIYKLFNNIIKKLYRNSKSIVIIDTDGEKNFVPLSDLLYISSMKENKLHLRYQLTDRALISKGTLSEAEKRLSSHGFVSPSRGFLVNLHQIRSITSTRLLLNNGFELPISRRRSKELQNIYSQHIINIL | not soluble
MHLAKERSSVSGTLRVGDRSPRIAEVRTALTRLGLLEGTTKNLEQTKSDTFTDSETLFDEDLALALQGFQQARGIIASGEINEITLKLLREASYSLGARVLSFEPNNIFVGDDVVQLQHQLQELGFYTDRVDGRFGELTYTSLVNYQLNYGLNPDGICGPETIRAFGRLGRRITGGSPHALRERERVRDAGPMLAGKRVVIDPGFGGADKGQVVRGPYGDITEEEIIWDLAGRIEGRMIAAGMETIVSRPRQDSPSLKGRADIANAFGADVMISLQCDKYPNDKANGVASFYFGSEMGSSSLTGEMLSGFIQREISARTDLVNCGNHGRTWDLLRITEMPTVEVVLGYLTNPHDVAILTDPEQRDAIAEAIVVAVKRLYLLDDDDQPTGTYRFSEMLEQGLL | not soluble
MGSDKIHHHHHHCNFDGRPCCWANVPPPDDQLDWQIASGVPVQLQNRGVPQPEGSYLIAYAKSAAPSDEAQFASCSIGCASSDIVVRAKHWQSESVLLQVCLRESFPSNAERNPLINCQEFPYVDGMGTTEVILPKTSLVDIVFVASNFIGDQGDVAILDDIEVSYDRNGSECQN | not soluble
